Measurements published in patent US20140073518A1.
Residue numbers refer to the chain shown, from its start. Numbers in names are those of the source. Where two headings read alike, the source gives them in different places. Blank lines part the entries; values can stand above or below the binder they belong to. Ends that are not written are not given here.

Experiments:
[1] = target: integrins on PC3 cells (adhesion to vitronectin); test: cell-based or functional assay
[2] = target: human umbilical vein endothelial cells (HUVECs), which express medium levels of the αvβ3, αvβ5 integrins, the Met receptor, and a high level of the α5β1 integrin; test: HUVEC cell binding assay
[3] = target: integrins on PC3 cells (adhesion to vitronectin); test: cell-based or functional assay; remark: listed apart in the source
[4] = target: integrins on PC3 cells (adhesion to vitronectin)

- Half-maximal inhibitor concentration, inhibition of PC3 cell adhesion to human vitronectin [1]: 20 to 40 nM
B1: AgRP mutant 7A (designed binder)
chain: GCVRLHESCLGQQVPCCDPAATCYCSGRGDNDLVCYCR
modifications: ends and bridges not checked; also: four disulfide bonds, pairings not given here

- Half-maximal inhibitor concentration, inhibition of PC3 cell adhesion to human vitronectin [1]: 20 to 40 nM
B2: AgRP7A-Aras4 fusion protein (soluble, FLAG and His tagged) (designed binder)
chain: DYKDDDDKPRGCVRLHESCLGQQVPCCDPAATCYCSGRGDNDLVCYCRYAEGQGKRRNTIHEFKKSAKTTLIKIDPALRIKTEKANTADQCANRCTRSKGLPFTCKAFVFDKARKRCLWFPFNSMSSGVKKEFGHEFDLYENKAYIRDCIIGRGRNYRGTVSITKSGIKCQPWSAMIPHEHSFLPSSYRGEDLRENYCRNPRGEEGGPWCYTSDPEVRYEVCDIPQCSEVETRHHHHHH

- Kd [2]: 9.4 nM
B3: AgRp7A-M2.2(D127A) fusion protein (designed binder)
chain: B2 chain with G54R, R79K, A85V, S98N, A144D, D148A, R153N, N156S, A175S, Y211F

- Half-maximal inhibitor concentration, inhibition of PC3 cell adhesion to human vitronectin [1]: 20 to 40 nM
B4: EETI2.5F-Aras4 fusion protein (designed binder)
chain: DYKDDDDKPRGCPRPRGDNPPLTCSQDSDCLAGCVCGPNGFCGYAEGQGKRRNTIHEFKKSAKTTLIKIDPALRIKTEKANTADQCANRCTRSKGLPFTCKAFVFDKARKRCLWFPFNSMSSGVKKEFGHEFDLYENKAYIRDCIIGRGRNYRGTVSITKSGIKCQPWSAMIPHEHSFLPSSYRGEDLRENYCRNPRGEEGGPWCYTSDPEVRYEVCDIPQCSEVETRHHHHHH

- Kd [2]: 4.7 nM
B5: EETI2.5F-M2.2(D127A) fusion protein (designed binder)
chain: B4 chain with G49R, R74K, A80V, S93N, A139D, D143A, R148N, N151S, A170S, Y206F

- Half-maximal inhibitor concentration, inhibition of PC3 cell adhesion to human vitronectin [3]: 20 to 40 nM
B6: EETI-II mutant 2.5F (designed binder)
chain: GCPRPRGDNPPLTCKQDSDCLAGCVCGPNGFCG

- IC50 (read off the curve), PC3 cell adhesion to vitronectin [4]: 10 nM
B7: knottin 2.5F-Fc (EETI 2.5F fused to the Fc domain of mouse Ig2a) (Fc fusion)
chain: GCPRPRGDNPPLTCKQDSDCLAGCVCGPNGFCGEPRGPTIKPCPPCKCPAPNLLGGPSVFIFPPKIKDVLMISLSPIVTCVVVDVSEDDPDVQISWFVNNVEVHTAQTQTHREDYNSTLRVVSALPIQHQDWMSGKEFKCKVNNKDLPAPIERTISKPKGSVRAPQVYVLPPPEEEMTKKQVTLTCMVTDFMPEDIYVEWTNNGKTELNYKNTEPVLDSDGSYFMYSKLRVEKKNWVERNSYSCSVVHEGLHNHHTTKSFSRTPGK

- IC50 (read off the curve), PC3 cell adhesion to vitronectin [4]: 10 nM
B8: knottin 2.5D-Fc (EETI 2.5D fused to the Fc domain of mouse Ig2a) (Fc fusion)
chain: B7 chain with R4Q, P5G, N9W, P10A, L12T, T13S, L21R
